Experimental data from the domain aggregation screens of Martell et al. (2025).

Assay: soluble fraction after stress (log2 fold change); higher = more stays soluble; pooled small domains, quantitative proteomics
Conditions: stress: 50 degC
Method in brief: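 After stress at 50°C, the amount of each protein still soluble was measured. This was done on pooled custom libraries of small protein domains, using high-throughput quantitative proteomics. The figure given is a base-two log fold change and stands for aggregation propensity, with higher values meaning more protein stays in solution.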

Sequence | soluble fraction (log2)
HMLPQYELIKQYLRHQIETGEWPIGYRTPSEPKLAEQFSVSRMTARRALQELADQGLLSRTAGSGTFVAKP | -0.483
HMEWLENIKKLKKEKGLTNESLSEKSGISVGTLNKLLSGATTDPKLSTLRPLADALEVSLDELLAI | 0.166
HMQLDLTSTLDHMYKQMRNDHPRALLMAVEKEMVLRALKETDGNQLRASDILGISRSTLRKRIEEFDINS | -1.09
HMFDLSQRQEQIIEIVRKHGPITGEKIADLLYVTRAALRPDLAILTMSGYLEAKPRVGYTYK | -1.2
HMKGPAFAKIDLTQLPAGLTSFLNTNAAGFKLDYAVAITKDSVIIEYHVGVTIGTAKKEFHLDPNFQLLP | -0.36
HMHGQGTYTSPDGTKYVGDWQDEKMHGQGTYTYPDGMKFVGEFKDNKPWNGTGYDKYGNVKATFSNGVGKS | 0.066
HMGTEITEQRAKEIALENAKVAESDVTAMRVKKEMDDGVWRYDVEFYVQNKEYDYEINAMDGTILSVDYD | -0.04
HMAHPRTHEALNPLWEKYLGPNAGNDFFLSGGTSLKALMFLKDLEKTLNKRIAIHAFFKDPTYEHVVSD | -0.683
HMDRSRAEIDLGHVETAIRTLAEGGMVQEYAIGGRSLKRYKMGELLQLKAELENEINMERRKEKMRQ | 0.197
HMDQQTKFKTALAALAASAETKDRKLTKADVKEFLEDMDLGEEQMKLVYAYLASKHIHVEGAE | 0.178
HMWTKKELWNAIAKLPKKQRTVVMMRIAQNLPYKDISEITGMSIGSAKVNYHHAVNSLKQWLS | -0.59
HMRADYVGGLDPAGDNFLALRTGPGSGYAMILPMGPGTFVTVLRRNGKWLLVELEDGTRGWAYGSYILG | -2.84
HMQVSDVTELRTILEKVITENESVATEFKEGKDAAMNFLVGQGMKATRGAADPALLKEIITGIL | 0.0889
HMEIVQVIAQNIQDLLDKHKISVSELSGYLGISRQTLTNYLKTTSTIDSVQLVKIADFFNIPAEYLLKDH | -0.968
HMSQTVKYVNTTSGLNMRTGPATSYAKITTIAYGQSVNVLSTSNGWSKINYSGSTGYVSSQYLQSKKPS | -0.942
HMEFTVFMNSAGGSKLQVVKTVKELTGLGLKEAKAIVDGSPGPVKEGLSKADAEAMLAKLQEAGADVEL | -0.0948
HMNRPYVELFSGLGQEEAQQIVQKLQEDEVDYKFSGDSTILVKEDVVDQTKATLVQEGYPKS | 0.0181
HMPETYVVFSKDGYANLRRGTTINSEILDVLDNGEYVTKLDEVGEWYRVEYADFDGGYIHKSQLKNI | -0.252
HMVKSYEVPDVSNLTVLEAEAKLQEMGFEIDEEQKEISSSDIESGRVVKTSPQAGSKRKEGAIITLYVSSG | 0.163
HMTLRDRDQALEELWGQLADVPMDSETERLLEPFMGWGVGVSRDEIWHWFDRRHSKGIGHLLYS | -1.55
HMGDADDLSRELLQQGLSLKEAVADFERRYLQQAMQRHSSIASVSEALDVHFSTLWRKLVKYNLV | -0.047
HMHAEEIAREAKEALERGEEFHFAGITVRSEEALEFLEEWLRKFF | -0.659
HMNSKIIVESIIKSKNGIAKVADLVEGGVSRQSIKKMYADGYIKRISRGYYTLTSEPVSSDEQVISS | -0.333
HMRDIGKNIRYYREKKGYSQEQLAQLLFVTRQTVSNYETSRSRPDVETLVKLAGLLDIDVTDLIYGPR | -0.651
HMENVMLRNFAIQATEAGVIKLLEDQRTFVWGSNNKKFMTVPFDEHPYSAMAAFFKTDEGLEIYKSIEKKF | -1.71
HMDSTDSIIHYVRAHRSLEVKNLSFAEARFKKVVELEPNFARGWLGLGEVSILKNNFENASIYLDKALE | -0.463

Sequence | soluble fraction (log2)
HMIDQIAEQLQQRLAVDTAFATIQRDYPDVIANKDIELLTAIKVNQKIAEGASRASAMLESAKEVYETL | -0.0203
HMAILDTALDVLSMNLKDNYTSFQILRQAAIAGKIAFNLTEKNPLGGVIEVELTGDDLETWIEAATW | -0.115
HMDDENKIEVMINEEKVQLTGKDKYVFVDIFNYIDMDLTRIHGNLVLKLNGENASHNSLLKSGDKIEARWE | -0.181
HMRAVEGKRLKRLLRTNLIAIERDQILQYPLRKRPLAIVTRAVRATNPDAVIVNDAGDDVFARALDVLLAS | -1.34
HMDYEVPEELQQKFEEFPRLKEAFYQLTPGRQHQYLYYFSQAKRSQTRYNRIDKYMNAILQGKGMK | -0.991
HMVNIEAEVGRRLRQLRARRGLSLRALADLSGLNVNTLSLIENSKTSPSVSTLQQLARSLQVPITTFFESD | -0.447
HMESGLPLPRFVSLGADEVNLRTGPGLRYPVAWVFVRKALPVEIVAEFEQWRRVRDFEGAEGWVHKAML | -0.36
HMQEIKPEPISDGRVWKEGMWATTPLGIEGQLLSDPDEKGMVQLGYGNMRININIQDLDPSR | -0.0705
HMELARLRPELDGNDIMRILGVPPGPVVGRAYTYLLELRINQGELGRERVTQLLLDWAAAEGISA | -2.02
HMEVIDQLFKIALTLFDIDKGENNSISQDLVDKVIEQMKTTAPTFIKRELSEDEVKKLRFEIQNHFNV | -0.221
HMHDHKTRLQELAAQRFGSAPSYLLTADGPAHDRRFHASVEVGGRSFGPGTGKSKKRAEQVAAHIAWDALS | 0.394
HMDGAPVTVIKNGEVDVATTMRVGLSASELMFKLRAAGVDEVQIVHRAVLEQNGQLTIIKYGEE | 0.0259
HMTVKRNLVQEILRLKFRHPENFMPNRAFYQEVGINQMRWWDIFYGRKNINQEEYIALSKYF | -0.237
HMGMTNRIKELRKAKGYRQEDLAAALGVSRQTIIAVENNKYNPTLELAMKLARHLQTTVEELFQL | -0.758
HMTPPAQQPHEGLPTDETATDAKTLVQKSRWWLEEEQRQREAGNTAYAERIRLALIQLLYRAERA | 0.0784
HMLIPADETEAKVLSVLSREPLHVDEIRNQAGLPIEKISATLALMELKGMVRQVGGMNYVSV | 0.122
HMSLLLTPREASVWASEYLGKKVTSNNIIYLLNYGKIANHSTDLKENLIDKNELKIYYDSTIKSQKH | -0.216
HMNFFQEIGNSILIELNKKNWTQSMFAHKIGVSDEVFKQIVQGKKALNAVEIAKIANTLDVDPEKLLRK | -0.191
HMVNVLKNSTVIDLVKNNLSDALIISLIRRAKVDFSLMTDDVIELSGKGVSPAVIMEMRQAMIRQASEIQN | -0.145
HMNLNESVELGQELLSQALAQLGIRGELSPSTIDKLLAESSAKSMEELYADIGIGKRMPALVARHIFGLMD | -0.43
HMDLTPEEQMDLYRLLDSLPTEERTYLILHYFEERSFPEMAEILSMPEAKLKSRFYRILHRLRAHL | -2.56
HMVSVGDIFAGRIISNENGHLLLQLLDGSKISAQTVTDLKYNIGDVLNLEIIEEKQGLIFVRQT | -0.516
HMDEKVTIPSVSGLLLSEAKTKLVDAGLTVETVYDDESKEAKDTVLSQSPLQYGKVDKGTVVTLTVSSGKG | -0.043
HMYHNKFADLAGFIAFNEKNEEIFTFGKYKGQNVKEVFQRDIGYYGWLQNADFPLYTKKVFTAIQLRSR | -2.16
HMLPDLLNGRVIPSPEKVIRARLNRGVWELLVQWVGRAPSDATWENLLEFKSAYPSVQLEDALF | -1.45
HMNPAYTDSRMKTFLEELPVMKASLSQKHVTRFLVWQEYIGRHPDGYGKSQFFYHLKQNLVAAKG | -0.56

Sequence | soluble fraction (log2)
HMGYLNDRQRLIKDFITENQPLKVSDLVKQFPNIGLSTLKKDLQYLRGEQVLTMIGKGKGSVYVLNKK | -0.446
HMQVLLTRREKEILKLIAEGLTSAEIGKRLFISTTTVDTHRKHLLEKLKAGNTAILIKTAVQLDLI | -1.26
HMQNDDLTKLDGIGPYIEQRLNDIGIYNYEQLSKLNTEDIQKITELIDFFPGRIERDNWVSQAQLLKI | -0.316
HMSATQDAAIAVRIRDILSELDGYEDVTVTVTSGIVTMRGTTLDSEKIARLNDLTGRVEGVVAIENSVTET | -0.367
HMQDNDLKNQIENVLRTYPDNVFTVEKIADVLRSHGSAAFKLIVQELASLERDKVAVVTEDGKFQLNPD | 0.125
HMVFQTAAEKAYEIISKKIMKGEYEPGMRLVRRQLAQELGVSPIPILEAMKRLEQDGLIEYKAHWGSIVTI | -1.97
HMAFRIGGFVQEGSVVRQQDGGTVRFEVTDTAHSVPVTYKGSLPDLFKEGKGVVAQGKLMNGTFVADQVLA | -0.0129
HMTEKIEWYKEVLELEPNSKVFFPLARMLAEEQRFDEAVAVLEHGLERHGEFLEARLFFIELLHET | -3.69
HMARRTPPPTVSELNALLRVAAPHIQRVILLGIYTGARIGPSELFSLKWDDVDLTRGVIGIRL | -0.0306
HMSSIVLTARSGRAALAYRVKSIGVDLSKDQLDLVYKTFLGFADKKKEIIDTDIPQILKASGI | -1.92
HMTVPTEVALELMHATALEDNEQRILYIASFKEKHREHLHATIEVDGQEVTLARYADLVATGAYL | -0.505
HMYMWQVEDLLRANELDIENIKKTIIDHYQLDDAQKSELTRWYEDLINMMRLEGVTKEGHLQINK | -1.41
HMRNDIFDQLTEREMQILQEVAKGYRNKQIADHLFISESTVKVHMKSLLKKLQVPSRTAATVLYLERYG | -1.66
HMDLTSDANLKEAKDQILNLLNDGKRHHVTEINKILLPPVQVQEALRFLIHEETVRVDASFLF | -0.167
HMLERPLKLKSHYVSTIYEKVAVQYSEGEEKKSVMGTLIEVNQDTIVLDDRGTIIEIPFKSITRAKTVF | -0.245
HMKEFEINSQWKPSLEVYDILSVKGGISRNFIEDSIPEFVLYWRGRGDKSNTWDSKFVQHVKRQWNFYSGL | -3.32
HMTFSDKIRELRKQKGVSQAVVAEYLGITKQAYSLYETGKREPDFDSLLKLAEYFGTDTDSLLY | -0.309
HMVVTMEKIVVNDGGIRIDTYLADKLNISRSKVAKMLENNILVNNVKVKPSYKVTNNDIIEVEEYV | -0.936
HMIDELLDPTHRIMVRHPRVDYVSPGFLIGPDKDVILWGFTGGIIARLFDFLGWTRPWDQSHVQDLPPYML | -0.202
HMQHQSGLKSGEFEAISQQLQALLKENPLSLQEIKDKMQVTENHLIKVVSYLVSEEIIRQENGYLK | -0.729
HMHSKQRDAIFENLRSRKDHPTAEEIYLSLKPAMPAISLATVYRNLAQLENEGLILRLGSGGSARYDGDT | -0.441
HMDYINALTTAGITDAKVIVTAPFDVSGTAALTGIYKAYEDITGSSLNEIAKAVGVEELITTGNLA | 0.0392
HMEYSNLGEALRRLSEIDLQIILLKYSHGFSIKEISKILDIKEVNLYKRNKRALNKLKKILAEMEVLSN | -0.397
HMHPEETVNLILDAAFRLFLEKGYEHTSIQDIIGQLGGLSKGAIYHHFNSKEDILIAVTDRMTA | -1.81
